In this test the target is HLA-DR1 (HLA-DRA*0101, HLA-DRB1*0101) (human). Nature of the test: ELISA.

Broadly, the IC50 is the midpoint of a concentration-inhibition curve.

In turn, “influenza A virus hemagglutinin (HA) peptide HA305-319” displayed an IC50 of 29 nM.

For the origin of these results see article PMC10840515.
